Measured values reported in PMC10397247.
Like-named read-outs stand apart in the source and are kept apart here.

Legend:
[1] = molecular target: T1, P9-AA; assay: two-hybrid library CCmax; settings: mean of both orientations;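 further: natural log of median RNA to DNA barcode read ratio; higher means stronger binding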
T1 chain: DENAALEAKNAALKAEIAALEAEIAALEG

[2] = molecular target: T2, 4H891-AA; assay: two-hybrid library CCmax; settings: mean of both orientations;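 further: natural log of median RNA to DNA barcode read ratio; higher means stronger binding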
T2 chain: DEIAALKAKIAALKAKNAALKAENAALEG

[3] = molecular target: T3, 4H485-AA; assay: two-hybrid library CCmax; settings: mean of both orientations;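 further: natural log of median RNA to DNA barcode read ratio; higher means stronger binding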
T3 chain: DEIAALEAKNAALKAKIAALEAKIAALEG

[4] = molecular target: T4, 4H930-AA; assay: two-hybrid library CCmax; settings: mean of both orientations;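 further: natural log of median RNA to DNA barcode read ratio; higher means stronger binding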
T4 chain: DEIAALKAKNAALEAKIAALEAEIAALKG

[5] = molecular target: T5, O1-AA; assay: two-hybrid library CCmax; settings: mean of both orientations
T5 chain: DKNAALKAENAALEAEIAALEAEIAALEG

[6] = molecular target: T6, 4H458-AA; assay: two-hybrid library CCmax; settings: mean of both orientations
T6 chain: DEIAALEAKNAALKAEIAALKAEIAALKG

[7] = molecular target: T7, 4H384-AA; assay: two-hybrid library CCmax
T7 chain: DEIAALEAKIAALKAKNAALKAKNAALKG

[8] = molecular target: T8, O4-AA; assay: two-hybrid library CCmax; settings: mean of both orientations
T8 chain: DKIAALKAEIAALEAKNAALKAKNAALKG

[9] = molecular target: T9, O14-AA; assay: two-hybrid library CCmax; settings: mean of both orientations
T9 chain: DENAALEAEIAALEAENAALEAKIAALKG

[10] = molecular target: T10, 4H3697-AA; assay: two-hybrid library CCmax; settings: mean of both orientations
T10 chain: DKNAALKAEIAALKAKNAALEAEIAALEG

[11] = molecular target: T11, 4H909-AA; assay: two-hybrid library CCmax; settings: mean of both orientations
T11 chain: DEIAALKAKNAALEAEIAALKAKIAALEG

[12] = molecular target: T12, O8-AA; assay: two-hybrid library CCmax; settings: mean of both orientations
T12 chain: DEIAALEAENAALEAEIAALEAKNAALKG

[13] = molecular target: T13, 4H3165-AA; assay: two-hybrid library CCmax; settings: mean of both orientations
T13 chain: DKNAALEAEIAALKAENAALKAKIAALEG

[14] = molecular target: T14, 4H710-AA; assay: two-hybrid library CCmax; settings: mean of both orientations
T14 chain: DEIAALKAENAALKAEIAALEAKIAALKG

[15] = molecular target: T15, O13-AA; assay: two-hybrid library CCmax; settings: mean of both orientations
T15 chain: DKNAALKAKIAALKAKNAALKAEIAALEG

[16] = molecular target: T16, 4H850-AA; assay: two-hybrid library CCmax; settings: mean of both orientations
T16 chain: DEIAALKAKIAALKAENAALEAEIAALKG

[17] = molecular target: T17, O3-AA; assay: two-hybrid library CCmax; settings: mean of both orientations
T17 chain: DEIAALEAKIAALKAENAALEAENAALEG

[18] = molecular target: T18, 4H3130-AA; assay: two-hybrid library CCmax; settings: mean of both orientations
T18 chain: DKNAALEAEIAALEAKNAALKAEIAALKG

[19] = molecular target: T19, 4H3120-AA; assay: two-hybrid library CCmax; settings: mean of both orientations
T19 chain: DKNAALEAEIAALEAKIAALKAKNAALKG

[20] = molecular target: T20, 4H629-AA; assay: two-hybrid library CCmax; settings: mean of both orientations
T20 chain: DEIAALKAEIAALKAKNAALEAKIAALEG

[21] = molecular target: T21, O5-AA; assay: two-hybrid library CCmax; settings: mean of both orientations
T21 chain: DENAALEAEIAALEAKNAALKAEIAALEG

[22] = molecular target: T22, O2-AA; assay: two-hybrid library CCmax; settings: mean of both orientations
T22 chain: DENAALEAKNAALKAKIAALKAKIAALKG

[23] = molecular target: T23, O7-AA; assay: two-hybrid library CCmax; settings: mean of both orientations
T23 chain: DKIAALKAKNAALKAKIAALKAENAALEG

[24] = molecular target: T24, 4H3753-AA; assay: two-hybrid library CCmax; settings: mean of both orientations
T24 chain: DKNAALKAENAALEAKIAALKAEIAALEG

[25] = molecular target: T25, 4H3590-AA; assay: two-hybrid library CCmax; settings: mean of both orientations
T25 chain: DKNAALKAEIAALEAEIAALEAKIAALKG

[26] = molecular target: T26, 4H797-AA; assay: two-hybrid library CCmax; settings: mean of both orientations
T26 chain: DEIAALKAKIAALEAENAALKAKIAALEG

[27] = molecular target: T27, 4H310-AA; assay: two-hybrid library CCmax; settings: mean of both orientations
T27 chain: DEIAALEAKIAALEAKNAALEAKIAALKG

[28] = molecular target: T28, 4H536-AA; assay: two-hybrid library CCmax; settings: mean of both orientations
T28 chain: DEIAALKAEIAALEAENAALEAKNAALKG

[29] = molecular target: T29, 4H3016-AA; assay: two-hybrid library CCmax
T29 chain: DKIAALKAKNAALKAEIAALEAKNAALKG

[30] = molecular target: T30, 4H3395-AA; assay: two-hybrid library CCmax; settings: mean of both orientations
T30 chain: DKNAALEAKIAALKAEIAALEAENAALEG

[31] = molecular target: T31, 4H3410-AA; assay: two-hybrid library CCmax; settings: mean of both orientations
T31 chain: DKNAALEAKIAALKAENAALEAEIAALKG

[32] = molecular target: T32, 4H94-AA; assay: two-hybrid library CCmax; settings: mean of both orientations
T32 chain: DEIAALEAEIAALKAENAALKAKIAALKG

[33] = molecular target: T33, 4H3865-AA; assay: two-hybrid library CCmax; settings: mean of both orientations
T33 chain: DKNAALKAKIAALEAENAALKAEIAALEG

[34] = molecular target: T34, 4H570-AA; assay: two-hybrid library CCmax; settings: mean of both orientations
T34 chain: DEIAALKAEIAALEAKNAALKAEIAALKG

[35] = molecular target: T35, O11-AA; assay: two-hybrid library CCmax; settings: mean of both orientations
T35 chain: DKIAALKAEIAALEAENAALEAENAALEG

[36] = molecular target: T36, O6-AA; assay: two-hybrid library CCmax; settings: mean of both orientations
T36 chain: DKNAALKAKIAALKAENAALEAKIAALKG

[37] = molecular target: T37, 4H745-AA; assay: two-hybrid library CCmax; settings: mean of both orientations
T37 chain: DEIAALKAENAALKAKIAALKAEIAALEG

[38] = molecular target: T38, 4H3381-AA; assay: two-hybrid library CCmax; settings: mean of both orientations
T38 chain: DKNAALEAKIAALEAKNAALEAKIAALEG

[39] = molecular target: T39, P10-AA; assay: two-hybrid library CCmax; settings: mean of both orientations
T39 chain: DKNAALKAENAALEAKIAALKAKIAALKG

[40] = molecular target: T40, O8-bP; assay: two-hybrid library CCNG1
T40 chain: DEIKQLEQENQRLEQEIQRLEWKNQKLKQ

[41] = molecular target: T41, O5-bP; assay: two-hybrid library CCNG1
T41 chain: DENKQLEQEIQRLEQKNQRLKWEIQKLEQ

[42] = molecular target: T42, O14-bP; assay: two-hybrid library CCNG1
T42 chain: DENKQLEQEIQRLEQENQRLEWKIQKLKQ

[43] = molecular target: T43, O13-bP; assay: two-hybrid library CCNG1
T43 chain: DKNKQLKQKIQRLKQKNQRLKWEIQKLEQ

[44] = molecular target: T44, O4-bP; assay: two-hybrid library CCNG1
T44 chain: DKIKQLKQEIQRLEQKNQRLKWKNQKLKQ

[45] = molecular target: T45, O6-bP; assay: two-hybrid library CCNG1
T45 chain: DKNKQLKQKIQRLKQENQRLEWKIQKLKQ

[46] = molecular target: T46, O7-bP; assay: two-hybrid library CCNG1
T46 chain: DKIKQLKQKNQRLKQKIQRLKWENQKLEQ

[47] = molecular target: T47, O2-bP; assay: two-hybrid library CCNG1
T47 chain: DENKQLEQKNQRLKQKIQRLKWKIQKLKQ

[48] = molecular target: T48, O16-bP; assay: two-hybrid library CCNG1
T48 chain: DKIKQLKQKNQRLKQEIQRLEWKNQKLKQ

[49] = molecular target: T49, O3-bP; assay: two-hybrid library CCNG1
T49 chain: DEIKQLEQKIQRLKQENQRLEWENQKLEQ

[50] = molecular target: T50, O9-bP; assay: two-hybrid library CCNG1
T50 chain: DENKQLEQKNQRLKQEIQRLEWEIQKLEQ

[51] = molecular target: T51, O15-bP; assay: two-hybrid library CCNG1
T51 chain: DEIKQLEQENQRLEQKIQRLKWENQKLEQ

[52] = molecular target: T52, O12-bP; assay: two-hybrid library CCNG1
T52 chain: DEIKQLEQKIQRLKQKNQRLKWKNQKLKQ

[53] = molecular target: T53, 4H43-AA; assay: two-hybrid library CCmax; settings: mean of both orientations
T53 chain: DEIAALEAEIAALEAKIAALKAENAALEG

[54] = molecular target: T54, 4H697-AA; assay: two-hybrid library CCmax; settings: mean of both orientations
T54 chain: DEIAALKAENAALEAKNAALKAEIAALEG

[55] = molecular target: T55, 4H510-AA; assay: two-hybrid library CCmax; settings: mean of both orientations
T55 chain: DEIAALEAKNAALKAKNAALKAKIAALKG

[56] = molecular target: T56, 4H3905-AA; assay: two-hybrid library CCmax; settings: mean of both orientations
T56 chain: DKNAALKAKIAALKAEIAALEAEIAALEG

[57] = molecular target: T57, 4H_APH; assay: two-hybrid library CCmax; settings: mean of both orientations
T57 chain: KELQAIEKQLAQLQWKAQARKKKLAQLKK

[58] = molecular target: T58, 4H451-AA; assay: two-hybrid library CCmax; settings: mean of both orientations
T58 chain: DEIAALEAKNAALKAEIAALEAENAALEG

[59] = molecular target: 4H_GCN4; assay: two-hybrid library CCmax
[60] = molecular target: T59, 4H982-AA; assay: two-hybrid library CCmax; settings: mean of both orientations
T59 chain: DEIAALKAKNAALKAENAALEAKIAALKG

[61] = molecular target: T60, 4H_BCR; assay: two-hybrid library CCmax; settings: mean of both orientations
T60 chain: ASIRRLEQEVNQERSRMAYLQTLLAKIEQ

[62] = molecular target: GCN2_T; assay: two-hybrid library CCmax; settings: mean of both orientations
[63] = molecular target: T61, 4H4038-AA; assay: two-hybrid library CCmax; settings: mean of both orientations
T61 chain: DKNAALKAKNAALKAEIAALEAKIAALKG

Chain of 4H_GCN4 (chain, as listed by the source): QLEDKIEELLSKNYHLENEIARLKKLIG

Binder: DKIAALKAKNAALKAEIAALEAKNAALKG [4H3016-AA]
- interaction score [1]: -0.637
- interaction score [2]: -1.63
- interaction score [3]: -0.786
- interaction score [4]: -1.32
- interaction score [5]: -0.276
- interaction score [6]: -1.13
- interaction score ([7]; mean of both orientations): -1.89
- interaction score [8]: -1.64
- interaction score [9]: 2
- interaction score [10]: -0.432
- interaction score [11]: -0.857
- interaction score [12]: 1.56
- interaction score [13]: -1.17
- interaction score [14]: -1.35
- interaction score [15]: -1.87
- interaction score [16]: -0.436
- interaction score [17]: -0.74
- interaction score [18]: -0.405
- interaction score [19]: -1.33
- interaction score [20]: -1.28
- interaction score [21]: -0.896
- interaction score [22]: -1.29
- interaction score [23]: 0.0246
- interaction score [24]: 0.667
- interaction score [25]: 0.669
- interaction score [26]: -1.65
- interaction score [27]: -0.901
- interaction score [28]: -0.944
- interaction score [29]: -1.56
- interaction score [30]: -1.1
- interaction score [31]: 0.759
- interaction score [32]: -0.745
- interaction score [33]: -1.38
- interaction score [34]: -1.4
- interaction score [35]: -1.4
- interaction score [36]: 0.964
- interaction score [37]: 0.997
- interaction score [38]: -1.11
- interaction score [39]: -0.503

Binder: DEIKQLEQKIQRLKQKNQRLKWKNQKLKQ [O12-bP]
- interaction score [40]: -1.25
- interaction score [41]: -0.621
- interaction score [42]: -0.196
- interaction score [43]: -0.964
- interaction score [44]: 0.355
- interaction score [45]: -1.02
- interaction score [46]: -0.715
- interaction score [47]: -1.14
- interaction score [48]: -0.648
- interaction score [49]: -1.45
- interaction score [50]: 0.055
- interaction score [51]: -0.827
- interaction score [52]: -0.0984

Binder: DEIAALEAKIAALKAKNAALKAKNAALKG [4H384-AA]
- interaction score [53]: 0.71
- interaction score [54]: -1.86
- interaction score [55]: -1.55
- interaction score [56]: 0.75
- interaction score [1]: -0.334
- interaction score [5]: -1.04
- interaction score [7]: -1.34
- interaction score [8]: -0.235
- interaction score [9]: 0.835
- interaction score [12]: 0.295
- interaction score [15]: -1.52
- interaction score [17]: 1.52
- interaction score [57]: -1.66
- interaction score [58]: -0.0732
- interaction score [21]: -0.778
- interaction score [22]: -1.68
- interaction score [59]: -2.22
- interaction score [23]: -1.59
- interaction score [60]: -1.63
- interaction score [33]: -0.294
- interaction score [35]: 2.48
- interaction score [36]: -0.52
- interaction score [61]: -2.23
- interaction score [62]: -1.61
- interaction score [63]: -1.15
- interaction score [39]: -1.12
